Measurements: patent publication US20230365642A1 (published 2023)
Numbering of substitutions follows the chain as printed.

T1: IL2R alpha (CD25) (UniProt P01589 22-213)
T1 chain: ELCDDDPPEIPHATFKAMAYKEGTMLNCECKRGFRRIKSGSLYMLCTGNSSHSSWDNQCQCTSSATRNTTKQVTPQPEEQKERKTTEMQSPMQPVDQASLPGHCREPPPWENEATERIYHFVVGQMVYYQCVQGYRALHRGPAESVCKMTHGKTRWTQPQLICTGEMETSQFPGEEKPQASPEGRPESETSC

T2: IL2R beta (CD122) (UniProt P14784 27-239)
T2 chain: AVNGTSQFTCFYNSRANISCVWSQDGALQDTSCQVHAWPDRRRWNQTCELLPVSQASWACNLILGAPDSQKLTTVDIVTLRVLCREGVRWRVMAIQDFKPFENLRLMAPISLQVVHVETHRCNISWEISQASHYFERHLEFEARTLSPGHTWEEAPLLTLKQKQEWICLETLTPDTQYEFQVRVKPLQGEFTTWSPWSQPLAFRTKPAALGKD

T3: IL13Rα Protein, Human, Recombinant, His Tag (human IL13Rα1) (human, UniProt P78552 22-343)
T3 chain: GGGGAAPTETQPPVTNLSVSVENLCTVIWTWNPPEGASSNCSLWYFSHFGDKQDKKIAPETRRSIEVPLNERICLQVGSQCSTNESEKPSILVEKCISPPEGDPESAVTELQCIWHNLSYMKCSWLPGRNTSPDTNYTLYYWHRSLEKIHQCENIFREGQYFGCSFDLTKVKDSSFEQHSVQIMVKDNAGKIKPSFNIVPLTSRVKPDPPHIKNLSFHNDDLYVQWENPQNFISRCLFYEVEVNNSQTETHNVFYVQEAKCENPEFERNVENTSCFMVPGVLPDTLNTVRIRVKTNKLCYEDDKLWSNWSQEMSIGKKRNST

T4: IL13Rα2 Protein, Human, Recombinant, His Tag (human, UniProt Q14627 27-343)
T4 chain: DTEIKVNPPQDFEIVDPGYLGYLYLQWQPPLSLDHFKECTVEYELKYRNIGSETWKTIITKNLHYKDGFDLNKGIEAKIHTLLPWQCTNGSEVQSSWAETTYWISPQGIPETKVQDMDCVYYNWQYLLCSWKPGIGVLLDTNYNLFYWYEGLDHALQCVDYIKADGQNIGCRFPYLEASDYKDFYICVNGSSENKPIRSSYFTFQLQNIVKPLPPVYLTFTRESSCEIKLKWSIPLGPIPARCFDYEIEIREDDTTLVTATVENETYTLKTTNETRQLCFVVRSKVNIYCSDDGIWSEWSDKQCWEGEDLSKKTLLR

B1: MDNA109-Fc (2nd Gen.) (protein)
chain: APTSSSTKKTQLQLEHLLLDLQMILNGINNYKNPKLTRMLTFKFYMPKKATELKHLQCLEEELKPLEEVLNLAQSKNFHFDPRDVVSNINVFVLELKGSETTFMCEYADETATIVEFLNRWITFCQSIISTLTGGGGSGGGGSGGGGSDKTHTCPPCPAPELLGGPSVFLFPPKPKDTLMISRTPEVTCVVVDVSHEDPEVKFNWYVDGVEVHNAKTKPREEYASTYRVVSVLTVLHQDWLNGKEYKCKVSNKALPAPIEKTISKAKGQPREPQVYTLPPSREEMTKNQVSLTCLVKGFYPSDIAVEWESNGQPENNYKTTPPVLDSDGSFFLYSKLTVDKSRWQQGNVFSCSVMHEALHNHYTQKSLSLSPGK
B2: CD25 (IL-2Rα) (receptor)
chain: T1 chain
B3: CD122 (IL-2Rβ) (receptor)
chain: T2 chain
B4: A5 (protein)
chain: PGPVPPSTALIELIEELINITQNQKAPLCNGSMVWSINLTAGMYCAALESLINVSGCSAIEKTQRMLSGFCPHKVSAGQFSSLHVKGSKIEVAQFVKDLLHHLRALMREGQFN
B5: A6 (protein)
chain: B4 chain with L10I, I11R, I18L, K86M, G87K, M107F
B6: B6 (protein)
chain: B4 chain with L10T, I11R, K86R, H101Y, A105T, M107F
B7: A7 (protein)
chain: B4 chain with L10I, I11R, K86R, M107F
B8: A8 (protein)
chain: B4 chain with L10I, I11R, K86R, G87S, K89R, A105T, M107F
B9: B2 (protein)
chain: B4 chain with I11R, K86T, H101Y, M107F
B10: A11 (protein)
chain: B4 chain with L10V, I11R, K86R, G87S, H101F, A105T, M107F
B11: B4 (protein)
chain: B4 chain with I11S, K89M, H101Y, A105T, M107F
B12: C12 (protein)
chain: B4 chain with L10H, I11R, I18V, K86M, G87D, K89R, H101N, M107F, R108K
B13: C2 (protein)
chain: B4 chain with L10D, G87K, S88T, K89R, H101L, R104K, A105K, M107F, R108K
B14: D7 (protein)
chain: B4 chain with L10A, I11R, I18F, G87K, S88T, K89R, H101I, A105K, M107F, R108K
B15: C4 (protein)
chain: PGPVPPSTAVRELIEELVNITQNQKAPLCNGSMVWSINLTAGMYCAALESLINVSGCSAIEKTQRMLSGFCPHKVSAGQFSSLHVRDTRIEVAQFVKDLLNHLKELFTEGQFN
B16: C7 (protein)
chain: B15 chain with V10L, R11S, I14M, T88S, R89K, E105A, T108K
B17: C10 (protein)
chain: B15 chain with V10H, R11L, V18I, R86M, N101L, E105K, T108K
B18: C11 (protein)
chain: B15 chain with V10H, R86T, D87G, T88R, R89K, N101L, E105K, T108K
B19: C3 (protein)
chain: B15 chain with V10A, R86T, D87G, T88K, K104R, E105A, T108K
B20: C9 (protein)
chain: B15 chain with V10H, R11L, V18I, R86K, D87E, E105T, T108K

Target: T1, IL2R alpha (CD25)
Experiment: BLI

| Kd [nM] | Binder |
| --- | --- |
| 14 | B1 |

Target: T2, IL2R beta (CD122)
Experiment: BLI

| Kd [nM] | Binder |
| --- | --- |
| 2.7 | B1 |

target: MDNA109-Alb (2nd Gen.); experiment: BLI

| Kd [nM] | Binder |
| --- | --- |
| 56 | B2 |
| 3.5 | B3 |

target: MDNA109 (1st Gen.); experiment: BLI

| Kd [nM] | Binder |
| --- | --- |
| 26 | B2 |
| 1.8 | B3 |

target: MDNA19 (3rd Gen.); experiment: BLI

| Kd [nM] | Binder |
| --- | --- |
| 2.1 | B3 |

Target: T3, IL13Rα Protein, Human, Recombinant, His …
Experiment: SPR; kinetic

| Kd [nM] | Binder |
| --- | --- |
| 2.94 | B4 |
| 1.9 | B5 |
| 5.9 | B6 |
| 1.18 | B7 |
| 2.06 | B8 |
| 0.275 | B9 |
| 0.084 | B10 |
| 18 | B11 |

Target: T4, IL13Rα2 Protein, Human, Recombinant, …
Experiment: SPR; kinetic

| Kd [nM] | Binder |
| --- | --- |
| 0.053 | B12 |
| 0.025 | B13 |
| 0.267 | B5 |
| 0.003 | B14 |
| 0.218 | B7 |
| 0.393 | B15 |
| 0.272 | B16 |
| 5 | B17 |
| 0.0001 | B18 |
| 0.379 | B19 |
| 0.263 | B8 |
| 1.5 | B9 |
| 0.391 | B10 |
| 0.259 | B20 |

Target: T3, IL13Rα Protein, Human, Recombinant, His …
Experiment: SPR; equilibrium

| Kd [nM] | Binder |
| --- | --- |
| 15000 | B12 |
| 4000 | B13 |
| 4100 | B14 |
| 36000 | B15 |
| 35000 | B16 |
| 264 | B17 |
| 3600 | B18 |
| 16000 | B19 |
| 31000 | B20 |

Target: T4, IL13Rα2 Protein, Human, Recombinant, …
Experiment: SPR; equilibrium

| Kd [nM] | Binder |
| --- | --- |
| 50 | B4 |
| 53 | B6 |
| 108 | B11 |
